Data taken from PMC8225817, “The mineralocorticoid receptor leads to increased expression of EGFR and T-type calcium channels that support HL-1 cell hypertrophy”.

B1: mMRE (-216G/-191C) (dsDNA)
DNA 1: GCAGCAGCCTCCGCCCCCCGCACGGTGTGAGCGCCCGCCGCGGCCGAGGCGGCCGGAGTCCCGAG
DNA 2: CTCGGGACTCCGGCCGCCTCGGCCGCGGCGGGCGCTCACACCGTGCGGGGGGCGGAGGCTGCTGC
B2: mMRE (-216G/-191A) (dsDNA)
DNA 1: GCAGCAGCCTCCGCCCCCCGCACGGTGTGAGCGCCCGACGCGGCCGAGGCGGCCGGAGTCCCGAG
DNA 2: CTCGGGACTCCGGCCGCCTCGGCCGCGTCGGGCGCTCACACCGTGCGGGGGGCGGAGGCTGCTGC

Assays:
[1] = molecular target: T1, rhSP1 (specificity protein 1) (human, UniProt P08047 1-785); test: EMSA; 10 mM Tris, 50 mM KCl, 5 mM MgCl2, 1 mM DTT, 5% glycerol, 1 mg/ml poly(dI-dC), 5 fmol probe, 30 min room temperature; pH not stated; settings: protein: commercial; label: biotin
T1 sequence (P08047 whole entry): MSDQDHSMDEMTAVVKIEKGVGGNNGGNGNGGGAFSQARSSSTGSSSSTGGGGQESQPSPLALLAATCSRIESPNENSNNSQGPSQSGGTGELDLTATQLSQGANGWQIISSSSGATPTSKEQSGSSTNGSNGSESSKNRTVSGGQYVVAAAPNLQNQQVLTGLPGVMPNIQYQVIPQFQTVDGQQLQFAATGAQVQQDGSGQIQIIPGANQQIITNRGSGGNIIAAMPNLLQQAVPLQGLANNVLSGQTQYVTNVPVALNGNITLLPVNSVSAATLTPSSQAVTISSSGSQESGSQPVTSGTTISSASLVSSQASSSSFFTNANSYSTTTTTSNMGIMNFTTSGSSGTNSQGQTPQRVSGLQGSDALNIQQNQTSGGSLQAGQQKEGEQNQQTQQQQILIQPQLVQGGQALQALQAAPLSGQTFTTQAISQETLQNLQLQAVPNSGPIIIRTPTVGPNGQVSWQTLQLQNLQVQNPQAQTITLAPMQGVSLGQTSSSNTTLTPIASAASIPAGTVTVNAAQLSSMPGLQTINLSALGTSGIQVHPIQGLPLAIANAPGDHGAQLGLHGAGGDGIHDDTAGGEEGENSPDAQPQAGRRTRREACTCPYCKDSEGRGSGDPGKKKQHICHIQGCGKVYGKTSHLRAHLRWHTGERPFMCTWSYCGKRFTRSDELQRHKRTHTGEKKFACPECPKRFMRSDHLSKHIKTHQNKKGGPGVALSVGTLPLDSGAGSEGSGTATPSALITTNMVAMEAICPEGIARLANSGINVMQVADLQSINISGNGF

[2] = molecular target: T1, rhSP1 (specificity protein 1); test: EMSA; same as -216G/-191C; 10 mM Tris, 50 mM KCl, 5 mM MgCl2, 1 mM DTT, 5% glycerol, 1 mg/ml poly(dI-dC), 5 fmol probe, 30 min room temperature; pH not stated; settings: protein: commercial; label: biotin

| Binder | binding result [1] | binding result [2] |
| --- | --- | --- |
| B1 | binds |  |
| B2 |  | binds |
